Source: article PMC7038936 (Nucleic Acids Research, 2020)
Values belong to the binder of their own block, whether it stands above or below them.

Experiments:
[1] = target: XPA globular core (XPA98-219);RPA70AB (human;human?, UniProt P23025;P27694 98-219;181-422, |); assay: NMR
[2] = target: RPA70AB (UniProt P27694 181-422); assay: NMR
[3] = target: RPA70AB (RPA70 181-422), tandem ssDNA-binding domains A and B of RPA70 (human, UniProt P27694 181-422); assay: SEC-MALS
[4] = target: XPA full length M2 (human, UniProt P23025 1-273, E106K;F112A); assay: EMSA
Sequence of XPA full length M2 (P23025 whole entry E106K/F112A): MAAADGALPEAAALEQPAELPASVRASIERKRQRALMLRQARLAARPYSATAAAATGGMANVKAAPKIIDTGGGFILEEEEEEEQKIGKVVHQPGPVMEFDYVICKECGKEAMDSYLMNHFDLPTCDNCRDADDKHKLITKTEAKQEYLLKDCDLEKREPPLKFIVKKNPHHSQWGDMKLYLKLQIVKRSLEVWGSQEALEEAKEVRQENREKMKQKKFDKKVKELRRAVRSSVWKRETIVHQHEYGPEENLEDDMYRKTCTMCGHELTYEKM

Sequence of RPA70AB (P27694 181-422): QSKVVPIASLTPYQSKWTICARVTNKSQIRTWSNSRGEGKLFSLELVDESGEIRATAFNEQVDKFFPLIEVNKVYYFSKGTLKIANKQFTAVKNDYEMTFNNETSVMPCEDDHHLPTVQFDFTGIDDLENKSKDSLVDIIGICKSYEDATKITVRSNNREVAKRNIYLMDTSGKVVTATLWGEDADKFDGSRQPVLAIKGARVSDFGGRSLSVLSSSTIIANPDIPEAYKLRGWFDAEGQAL
Sequence of XPA globular core (XPA98-219);RPA70AB (P27694 181-422, one chain of several): as the sequence (P27694 181-422) above
Sequence of RPA70AB (RPA70 181-422), tandem ssDNA-binding domains A and B of RPA70 (P27694 181-422): as above

Binder: CCCCCCCC (ssDNA) [dC8]
binding result [1]: binds
binding result [2]: binds

binding result [3]: binds
B1: XPA DNA-binding domain (XPA 98-239), wild type (domain or fragment, human, UniProt P23025 98-239, looked up)
chain: MEFDYVICEECGKEFMDSYLMNHFDLPTCDNCRDADDKHKLITKTEAKQEYLLKDCDLEKREPPLKFIVKKNPHHSQWGDMKLYLKLQIVKRSLEVWGSQEALEEAKEVRQENREKMKQKKFDKKVKELRRAVRSSVWKRET

B2: FAM three-way junction (EMSA) (structured_DNA)
DNA 1: GTTCGTCAGGATTCCAATTCGTGCAGGCAT
DNA 2: ATGCCTGCACGAATTAAGCCATTCGTAATCATGGT
DNA 3: ACCATGATTACGAATGGCTTGGAATCCTGACGAAC
binding result [4]: binds
